T1: human xylosyltransferase 1 (XT1), residues 232-959 (human, UniProt Q86Y38 232-959, N-linked glycosylation at N777)
T1 construct: human xylosyltransferase 1 (XT1), residues 232-959, amplified from a Dharmacon cDNA clone; The vector is a modified pCEP-Pu (pCEP-Pu-N-His-TEV, Pulido et al., 2017); also called peptide O-xylosyltransferase; XYLT1; source: FreeStyle 293-F (HEK293-F) cells, transfected, secreted; purified (HisTrap Excel, HiTrap Heparin, Superdex 200); not shown: His-tag (TEV protease-cleavable), N-terminal, kept
T1 sequence (looked up): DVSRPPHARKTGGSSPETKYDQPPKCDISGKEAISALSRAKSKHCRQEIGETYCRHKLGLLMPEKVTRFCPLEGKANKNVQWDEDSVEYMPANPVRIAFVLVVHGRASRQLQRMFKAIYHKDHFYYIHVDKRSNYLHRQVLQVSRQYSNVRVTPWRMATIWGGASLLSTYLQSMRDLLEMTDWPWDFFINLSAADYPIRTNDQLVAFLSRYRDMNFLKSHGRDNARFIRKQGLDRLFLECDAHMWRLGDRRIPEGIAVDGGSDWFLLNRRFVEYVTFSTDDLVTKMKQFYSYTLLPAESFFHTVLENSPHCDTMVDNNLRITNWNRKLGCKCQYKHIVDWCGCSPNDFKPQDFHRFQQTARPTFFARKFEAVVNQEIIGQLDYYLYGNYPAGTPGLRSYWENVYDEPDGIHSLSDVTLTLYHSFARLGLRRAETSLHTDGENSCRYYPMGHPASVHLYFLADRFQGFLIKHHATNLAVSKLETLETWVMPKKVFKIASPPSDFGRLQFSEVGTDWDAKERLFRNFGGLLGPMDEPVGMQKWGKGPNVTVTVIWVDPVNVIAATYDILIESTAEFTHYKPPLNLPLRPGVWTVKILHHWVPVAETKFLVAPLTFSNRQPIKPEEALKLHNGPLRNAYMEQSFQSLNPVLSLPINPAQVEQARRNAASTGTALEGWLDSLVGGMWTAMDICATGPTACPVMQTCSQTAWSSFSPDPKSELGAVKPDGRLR

B1: Peptide 1 (bikunin-derived acceptor peptide, wild-type sequence) (peptide)
peptide: QEEEGSGGGQGG
notes: bikunin (part of the AMBP precursor) around the acceptor serine S215; position 0 is the acceptor serine; also called active peptide 1; bikunin-derived peptide 1; source: synthetic peptide (Genscript)
B2: Peptide 2 (inactive bikunin-derived peptide, acceptor serine replaced by alanine) (peptide)
peptide: QEEEGAGGGQGG
notes: bikunin (part of the AMBP precursor) around the acceptor site S215, with the acceptor serine changed to alanine; source: synthetic peptide (Genscript)
B3: Peptide 8 (syndecan 1-derived acceptor peptide) (peptide)
peptide: PAAEGSGEQDFT
notes: syndecan 1 around the acceptor serine S206; position 0 is the acceptor serine; source: synthetic peptide (Genscript)

target: T1, human xylosyltransferase 1 (XT1), …; experiment: crystal structure; XT1 crystals (hanging drop, Morpheus condition, pH 7.5) soaked with peptide (0.5 or 0.7 mM); for peptide 2 together with UDP-xylose (3.5 mM), giving a ternary complex; conditions: both partners purified

Binding result, binds:
B1, B2, B3

— PMC5992326, “Structural Basis for the Initiation of Glycosaminoglycan Biosynthesis by Human Xylosyltransferase 1” (Structure(London, England:1993), 2018)
